The record followed here is US20230272086A1 (CHIA TAI TIANQING PHARMACEUTICAL GROUP, published 2023).

Substitutions are numbered along the chain they refer to.

The labels stand for the following.
T1: cynomolgus monkey ST2 antigen (Cyno-ST2-his, Sino biological, 90915-C08H) (cynomolgus monkey, UniProt Q01638 19-328 (human entry))
T1 construct: Bought protein; not shown: his tag
T1 chain: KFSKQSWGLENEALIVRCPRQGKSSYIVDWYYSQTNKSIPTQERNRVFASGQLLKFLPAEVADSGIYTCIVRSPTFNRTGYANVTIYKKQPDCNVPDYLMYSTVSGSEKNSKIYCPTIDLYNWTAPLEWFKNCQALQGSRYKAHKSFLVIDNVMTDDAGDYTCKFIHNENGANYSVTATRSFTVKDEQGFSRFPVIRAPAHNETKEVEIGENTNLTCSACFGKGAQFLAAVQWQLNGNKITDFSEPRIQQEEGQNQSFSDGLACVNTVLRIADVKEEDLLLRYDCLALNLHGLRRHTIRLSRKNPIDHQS

B1: RG6149 (antibody Ab2 in CN104334582, prepared in-house) (antibody, human IgG2, kappa, V domains shown)
VH: EVQLVQSGAEVKKPGESLKISCKGSGYSFTNYWIGWVRQMPGKGLEWMGIIYPGNSDTRFSPSFQGQVTISADKSITTAYLQWSSLKASDTAMYYCARHGTSSDYYGLDVWGQGTTVTVSS
VL: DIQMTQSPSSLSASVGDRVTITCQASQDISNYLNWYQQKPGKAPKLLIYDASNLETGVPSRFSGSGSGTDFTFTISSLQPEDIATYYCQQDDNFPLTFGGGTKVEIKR
notes: Control anti-ST2 antibody
B2: Chimeric 31C8 (antibody, human IgG2, kappa, V domains shown)
VH: QVQLQQSGPELVRPGASVTLSCKASGYIFIDSEMHWVKQTPVHGLEWIGAIDPETGDTVYNQKFKGKATLTADKSSSTASMELSSLTSEDSAVYYCTGSTTDYYFAYWGQGTTLTVSS
VL: DIVMTQAAFSNPVTLGTSASISCRSSKSLLHSNGIIYLYWYLQKPGQSPQLLIYQMSNLASGVPDRFSSSGSGTDFTLRISRVEAEDVGVYYCAQNLELPFTFGSGTKLEIKR
notes: also called xi31C8
B3: Chimeric 3C6 (antibody, human IgG2, kappa, V domains shown)
VH: QVQLQQSGAEVVRPGASVTLSCKASDYTITDYEMHWVKQTPVHGLEWIGAIDPETGDTAYSQNFKGKATLTADESSSTAYMELSSLTSEDSAVYYCSRSATDYYFASWGQGTTLTVSS
VL: B2 VL with F9I, I21M, I36T, Q47H, R79K
notes: also called xi3C6
B4: Chimeric 8F4 (antibody, human IgG2, kappa, V domains shown)
VH: B2 VH with P9A, Y27H, I30T, S32Y, H35Q, I51F, V59A, S80Y, T97S, T113S
VL: B2 VL with I2V, A7T
notes: also called xi8F4
B5: Chimeric 26A1 (antibody, human IgG2, kappa, V domains shown)
VH: B2 VH with P9A, G26D, I30T, M34I, P41L, V59A, S80Y, D90G, T97S, Y103C
VL: B2 VL
notes: also called xi26A1
B6: Chimeric 17E2 (antibody, human IgG2, kappa, V domains shown)
VH: QVQLQQSGAELVRPGASVTLSCKASGYTFTDYEMHWVKQTPVLGLEWIGAIDPETGDTAYNQKFKGKATLTADKSSSTAYMELSSLASEDSAVYYCIRVDSNYDYFDYWGQDTTLTVSS
VL: DIVLTQSPPILSASPGEKVTMTCRASSSVSYMHWYQQKPGSSPKPWIYDTSNLASGVPARFSGSGSGTSYSLTISRVEAEDAATYYCQQWSSNPLTFGAGTKLELKR
notes: also called xi17E2
B7: Chimeric 7D1 (antibody, human IgG2, kappa, V domains shown)
VH: QVQLQQSGAELVRPGASVTLSCKASGYTFTDYEMHWVKQTPVHGLDWIGTIDPETGDTAYNQKFKGRATLTADKSSSTAYMELSSLTSEDSAVYYCTRYSYTNSPYGMDYWGQGTSVTVSS
VL: DVVMTQTPKFLLVSAGDRVTITCKASQSVSNDVAWYQQKPGQSPKLLIYYASNRYTGVPDRFTGSGYGTDFTFTINTVQAEDLAVYFCQQDYSSPYTFGGGTKLEIKR
notes: also called xi7D1

The target in one assay is T1, cynomolgus monkey ST2 antigen …. In words: ELISA, plate coated with Cyno-ST2-his. The protocol:
ST2 binding screening and analysis of antibodies were performed by ELISA using hST2-ECD-mFc (for assays of chimeric and humanized antibodies), hST2-ECD-hFc protein (for assays of hybridoma antibodies) and Cyno-ST2-his (Sino biological, 90915-C08H) as antigens. A high-adsorption 96-well plate (Costar, 9018) was coated with 2 µg/mL hST2-ECD-mFc or Cyno-ST2-his antigen at 100 µL/well and incubated overnight at 4° C. After the antigen not adsorbed was well washed off, the non-specific binding sites were blocked with a blocking buffer (PBS containing 2% bovine serum albumin). After the plate was washed three times with a washing buffer (PBS containing 0.05% (v/v) Tween 20), the anti-ST2 antibodies (serially diluted 3-fold from an initial concentration of 10 nM to 8 concentrations: 3.333 nM, 1.111 nM, 0.370 nM, 0.123 nM, 0.041 nM, 0.014 nM, 0.005 nM, and 0.002 nM) were added at 100 µL/well, and the plate was incubated at room temperature for 1 h. After the plate was washed with the washing buffer, a horseradish peroxidase (HRP)-conjugated secondary antibody was added, and the plate was incubated for another 60 min. After the plate was washed with the washing buffer, the substrate TMB solution (Thermo, 00-4201-56) was added at 100 µL/well, and the plate was incubated at room temperature for 2 min. A stop solution (2 N H₂SO₄) was added at 100 µL/well to terminate the reactions. Colorimetric signals were generated and read at 450 nm using a microplate reader (PE, Envision). The data were analyzed using GraphPad Prism5, and the EC₅₀ values were calculated.
A general note: In an ELISA, binding on a coated surface is turned into a signal by an enzyme label.
Broadly, the EC50 is the concentration that produces a half-maximal response. Take B1: the EC50 was 0.129 nM.

In turn, B2 gave an EC50 of 0.163 nM.

B3: the EC50 came to 0.43 nM.

For the molecule B4, the midpoint of the response, the EC50, lay at 0.164 nM.

B5 registered an EC50 of 0.946 nM.

Consider B6, for which the midpoint of the response, the EC50, lay at 0.22 nM.

The molecule B7 displayed an EC50 of 0.191 nM.

The target in another assay is recombinant protein containing hST2 extracellular domain with human antibody heavy chain Fc tag (hST2-ECD-hFc) (human). Briefly: competition ELISA, coated hST2-ECD-hFc, antibody then biotin-labeled hIL33 Avitag (competitor). The protocol: Whether the anti-ST2 antibodies were able to block the binding of hIL33 to hST2 was determined based on ELISA. A high-adsorption 96-well plate was coated with 2 µg/mL hST2-ECD-hFc at 100 µL/well and incubated overnight at 4° C. After the antigen not adsorbed was well washed off, the non-specific binding sites were blocked with a blocking buffer (PBST containing 1% bovine serum albumin). After the plate was washed three times with a washing buffer (PBST, PBS containing 0.05% (v/v) Tween 20), the anti-ST2 antibodies (serially diluted 2-fold from an initial concentration of 66.67 nM to 8 concentrations) were added at 100 µL/well, and the plate was incubated at 37° C. for 1 h After the plate was washed 3 times with the washing buffer, 100 µL of biotin-labeled hIL33 Avitag (with a concentration of 0.1 µg/mL) was added to each well, and the plate was incubated at 37° C. for 1 h. After the plate was washed 3 times with the washing buffer, a 1:1000 diluted secondary antibody Avidin HRP (Jackson immunoresearch, 016-030-084) was added at 100 µL/well, and the plate was incubated at room temperature for 1 h After the plate was washed with the washing buffer, the substrate TMB solution (Thermo, 00-4201-56) was added at 100 µL/well, and the plate was incubated at room temperature for 3 min. 50 µL of a stop solution (2 N H₂SO₄) was added to terminate the reactions. Colorimetric signals were generated and read at 450 nm using a plate reader (PE, Envision). The data were analyzed using GraphPad Prism5, and the IC₅₀ values were calculated.
In general, IC50 refers to the concentration that gives 50% inhibition. In the case of B1, the IC50 came to 2.88 nM.

B2: the IC50 was determined as 2.5 nM.

On to B3, for which the IC50 turned out to be 2.52 nM.

With B4, the IC50 was 2.79 nM.

B5: the IC50 was 2.53 nM.

Consider B6, for which the IC50 was determined as 3.35 nM.

In the case of B7, the IC50 is 2.9 nM.
